According to publication doi:10.1101/2023.08.08.552426:

Tests used:
[1] = target: smORF5 (A0901_04910) (Apilactobacillus kunkeei strain A0901); assay: NMR relaxation
[2] = target: smORF7 (A0901_04830) (Apilactobacillus kunkeei strain A0901); assay: NMR relaxation

Row | stoichiometry N [1] | stoichiometry N [2] | Substance
1 | 2 |  | smORF5 (A0901_04910) (natural protein)
2 |  | 2 | smORF7 (A0901_04830) (natural protein)
